Target: T1, recombinant human B domain deleted (BDD)-FVIII (Xyntha) (human, UniProt P00451 20-2351)
T1 sequence (looked up): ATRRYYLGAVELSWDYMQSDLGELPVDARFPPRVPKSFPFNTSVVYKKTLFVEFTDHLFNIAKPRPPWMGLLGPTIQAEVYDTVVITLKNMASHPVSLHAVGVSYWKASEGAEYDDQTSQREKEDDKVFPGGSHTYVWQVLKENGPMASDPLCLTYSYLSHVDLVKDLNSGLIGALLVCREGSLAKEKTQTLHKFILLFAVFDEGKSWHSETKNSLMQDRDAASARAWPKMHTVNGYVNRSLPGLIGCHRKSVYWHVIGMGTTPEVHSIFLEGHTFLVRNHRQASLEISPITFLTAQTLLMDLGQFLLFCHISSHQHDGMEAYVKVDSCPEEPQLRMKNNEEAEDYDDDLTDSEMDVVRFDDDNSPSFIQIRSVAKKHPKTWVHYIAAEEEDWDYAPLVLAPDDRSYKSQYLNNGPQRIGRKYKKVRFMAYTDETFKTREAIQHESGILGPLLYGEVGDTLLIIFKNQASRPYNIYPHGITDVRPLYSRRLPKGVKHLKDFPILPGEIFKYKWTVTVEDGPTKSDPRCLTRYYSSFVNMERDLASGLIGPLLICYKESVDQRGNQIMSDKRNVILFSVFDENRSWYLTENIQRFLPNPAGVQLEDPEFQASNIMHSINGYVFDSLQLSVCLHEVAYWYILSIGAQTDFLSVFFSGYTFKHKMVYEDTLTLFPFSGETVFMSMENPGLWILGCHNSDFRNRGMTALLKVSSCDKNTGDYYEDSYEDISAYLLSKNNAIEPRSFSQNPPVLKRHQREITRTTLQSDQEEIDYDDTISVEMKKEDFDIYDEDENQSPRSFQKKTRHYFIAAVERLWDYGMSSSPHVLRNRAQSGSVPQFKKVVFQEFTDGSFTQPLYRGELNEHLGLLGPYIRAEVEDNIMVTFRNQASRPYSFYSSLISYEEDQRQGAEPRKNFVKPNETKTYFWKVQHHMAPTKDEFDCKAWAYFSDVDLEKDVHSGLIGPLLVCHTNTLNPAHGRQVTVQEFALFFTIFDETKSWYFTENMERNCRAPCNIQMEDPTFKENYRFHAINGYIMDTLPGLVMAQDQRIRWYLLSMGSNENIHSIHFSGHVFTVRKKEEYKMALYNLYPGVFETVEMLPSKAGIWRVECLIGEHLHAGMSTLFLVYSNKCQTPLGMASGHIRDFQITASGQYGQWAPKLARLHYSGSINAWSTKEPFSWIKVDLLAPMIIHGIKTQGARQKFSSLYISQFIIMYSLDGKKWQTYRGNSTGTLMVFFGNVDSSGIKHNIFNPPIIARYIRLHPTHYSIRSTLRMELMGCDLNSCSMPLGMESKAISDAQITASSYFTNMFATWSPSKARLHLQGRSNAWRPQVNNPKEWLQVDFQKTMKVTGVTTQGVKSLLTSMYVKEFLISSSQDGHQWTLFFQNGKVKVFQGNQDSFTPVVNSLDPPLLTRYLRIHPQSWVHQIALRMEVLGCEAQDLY
Experiment: cell-based or functional assay

B1: FVIII TRUC (TCR fusion construct: BO2C11 FVIII scFv fused to the N-terminus of murine CD3 epsilon) (scFv)
chain: EIALTQSPGTLSLSPGERATLSCRASQSFSSSYLAWYQQKPGQAPRLLIYGASTRATGIPDRFSGSGSGTDFTLTISRLEPEDFAVYYCQKYGTSAITFGQGTRLEIKGGGGGSGGGGSGGGGSQVQLVQSGAEVKKPGASVKVSCKVSGYTLTELPVHWVRQAPGKGLEWVGSFDPESGESIYAREFQGSVTMTADTSTDIAYMELSSLRSDDTAVYYCAVPDPDAFDIWGQGTMVTVSSGGGGSGGGGSGGGGSDAENIEYKVSISGTSVELTCPLDSDENLKWEKNGQELPQKHDKHLVLQDFSEVEDSGYYVCYTPASNKNTYLYLKARVCEYCVEVDLTAVAIIIIVDICITLGLLMVIYYWSKNRKAKAKPVTRGTGAGSRPRGQNKERPPPVPNPDYEPIRKGQRDLYSGLNQRAV
For B1, the “CTLA4 expression in TRUC Tregs in vitro” value was 5 fold.

— patent publication US20240382587A1 (TRUSTEES OF INDIANA UNIVERSITY, published 2024)
